Data on four molecules can be found in patent publication US20200123270A1 (Astellas, published 2020).

Assay [1] has as its target human CEACAM5 (R&D Systems, Inc.), biotinylated (human) (UniProt P06731). The assay can be described thus: SPR (Biacore T200), biotinylated human CEACAM5 captured on chip, Fab as analyte. On the technique in general: SPR reads the build-up and loss of mass on a sensor chip optically.
Assay [2] has the same target. The assay can be described thus: SPR (Biacore T200), biotinylated human CEACAM5 captured on chip, Fab conjugate as analyte.
Assay [3] has as its target T1, human CEACAM5 (R&D Systems, Inc.), biotinylated (human, UniProt P06731 35-685, biotinylated with Biotin Labeling Kit-NH2; sites not stated).
T1 construct: Bought protein, biotinylated and captured on the sensor chip with the Biotin CAPture Kit
T1 sequence (looked up): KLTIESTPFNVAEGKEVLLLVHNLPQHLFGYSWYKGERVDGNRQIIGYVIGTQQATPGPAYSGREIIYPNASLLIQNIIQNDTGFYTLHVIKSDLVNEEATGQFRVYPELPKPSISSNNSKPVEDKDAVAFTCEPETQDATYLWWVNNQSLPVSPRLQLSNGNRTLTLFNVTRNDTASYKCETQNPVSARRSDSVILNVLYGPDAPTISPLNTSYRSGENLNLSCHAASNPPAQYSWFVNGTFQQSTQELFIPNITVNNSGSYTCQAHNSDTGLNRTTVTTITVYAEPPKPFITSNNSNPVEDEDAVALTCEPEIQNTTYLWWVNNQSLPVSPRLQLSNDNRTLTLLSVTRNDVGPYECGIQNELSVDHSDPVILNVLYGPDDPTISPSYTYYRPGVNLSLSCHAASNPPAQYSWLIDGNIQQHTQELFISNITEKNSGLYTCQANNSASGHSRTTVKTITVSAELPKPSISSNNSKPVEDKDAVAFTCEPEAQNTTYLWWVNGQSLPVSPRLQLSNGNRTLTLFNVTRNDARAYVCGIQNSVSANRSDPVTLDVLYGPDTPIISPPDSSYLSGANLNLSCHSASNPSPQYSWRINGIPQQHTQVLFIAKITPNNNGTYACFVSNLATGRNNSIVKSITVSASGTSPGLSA
The assay can be described thus: SPR (Biacore T200), biotinylated human CEACAM5 captured on chip, Fab as analyte. The method, then: (§1) The analysis by SPR was conducted using Biacore T200 (GE Healthcare Japan Corp.). 10 μg/mL human CEACAM5 (R&D Systems, Inc.) biotinylated with Biotin CAPture Kit, Series S (GE Healthcare Japan Corp.) and Biotin Labeling Kit-NH₂ (Dojindo Laboratories) was added to the surface of the sensor chip at a flow rate of 5 μL/min for 2 minutes, and immobilized thereonto. PB009-01, PB009-02, M5A-Fab and M5A-Fab-DFO were diluted with HBS-EP+ solution (GE Healthcare Japan Corp.) into 6 series at a 2-fold ratio from 400 nM, and 100 μL each was added to the channel at a flow rate of 50 μL/min. In this measurement system, the dissociation constant (KD) of PB009-01, PB009-02, M5A-Fab or M5A-Fab-DFO for human CEACAM5 was calculated using data analysis software (BIA Evaluation, GE Healthcare Japan Corp.). As a result, as shown in the table given below, the binding activity of M5A-Fab was attenuated by the binding of DFO, whereas the binding activity of PB009-01 was not attenuated by the binding of DFO.

Assay [4] has as its target T1, human CEACAM5 (R&D Systems, Inc.), …. The assay can be described thus: SPR (Biacore T200), biotinylated human CEACAM5 captured on chip, Fab conjugate as analyte. As to the method:
In order to measure the detailed binding activity of PB009-02, analysis was conducted by SPR. In this Example, a Fab fragment of M5A (referred to as M5A-Fab), a humanized antibody of T84.66, was used as a comparative Fab fragment. M5A-Fab bound to DFO via a linker (referred to as M5A-Fab-DFO) was prepared by use of the method described in Example 2.
as §1

What is called Kd is the equilibrium constant for the complex coming apart.

As to “Fab fragment of M5A, a humanized antibody of T84.66”, the Kd in assay [1] came out at 0.16 nM.

Take M5A-Fab bound to DFO via a linker: the Kd in assay [2] was 9.6 nM. This lies in the single-digit nanomolar range.

B1: anti-human CEACAM5 antibody Fab fragment PB009-01 (Fab, V domains shown)
VH: EVQLVESGGGLVQPGGSLRLSCAASGFNIRDTYMHWVRQAPGKGLEWVARIDPANGNSRYVPKFQGRFTISADTSRNTAYLQMNSLRAEDTAVYYCAPFGYYVSDYAMAYWGQGTLVTVSS
VL: DIQLTQSPSSLSASVGDRVTITCRAGESVDIFGVGFLHWYQQKPGKAPKLLIYRASNLESGIPSRFSGSGSRTDFTLTISSLQPEDFATYYCQQTNEDPYTFGQGTKVEIKR
notes: Humanized and redesigned from mouse anti-human CEACAM5 antibody T84.66
As to B1, the Kd in assay [3] turned out to be 0.17 nM.

B2: PB009-02 (Fab fragment PB009-01 bound to DFO via a linker) (Fab, V domains shown)
VH: EVQLVESGGGLVQPGGSLRLSCAASGFNIRDTYMHWVRQAPGKGLEWVARIDPANGNSRYVPKFQGRFTISADTSRNTAYLQMNSLRAEDTAVYYCAPFGYYVSDYAMAYWGQGTLVTVSS
VL: DIQLTQSPSSLSASVGDRVTITCRAGESVDIFGVGFLHWYQQKPGKAPKLLIYRASNLESGIPSRFSGSGSRTDFTLTISSLQPEDFATYYCQQTNEDPYTFGQGTKVEIKR
modifications: DFO bound via linker -C(=S)-NH-(1,4-phenylene)-NH-C(=S)- (from p-SCN-Bn-DFO); at least 3 to 10 DFO ligands per Fab by mass spectrometry; modified residues and their split between the chains not …
notes: Chemical conjugate of PB009-01 with the chelator DFO
Regarding B2, the equilibrium dissociation constant (Kd) in assay [4] came out at 0.61 nM.
